Drawing on patent US20260069679A1, this text covers Kd, kon and maximum binding for 2 substances.

For one experiment, the target named is SS-L6-LuS. As to the kind of experiment: BLI, 1:1 fit. (In general: BLI is a label-free optical method that tracks binding on a fibre tip over time.)
A further experiment addresses SS-L6-Aferr. Nature of the experiment: BLI, 1:1 fit.
The target in experiment [1] is SS-L2-LuS (MERS-CoV EMC/2012 spike stem fused to Aquifex aeolicus lumazine synthase). As to the kind of experiment: BLI, 1:1 fit.
Experiment [2] concerns the target SS\u0394G4Loop-L6-Aferr (MERS-CoV EMC/2012 spike stem fused to human apoferritin). As to the kind of experiment: BLI, 1:1 fit.
For experiment [3], the target named is SS\u0394G4Loop-L6-LuS (MERS-CoV EMC/2012 spike stem fused to Aquifex aeolicus lumazine synthase). Nature of the experiment: BLI, 1:1 fit.
For experiment [4], the target named is MERS SS delG4loop Nanoparticle. As to the kind of experiment: BLI sensorgrams, six curves without concentration labels, time axis 0-500 s.
Experiment [5] concerns the target SS-L2-LuS (MERS-CoV EMC/2012 spike stem fused to Aquifex aeolicus lumazine synthase).
The target of experiment [6] is MERS SS Nanoparticle (NP).

One may read the Kd as the concentration at which binding is half-saturated. The low end stands for tighter binding, the high end for weaker binding. For orientation: kon means the second-order rate constant of association. Turning to CC40.8 (antibody), the Kd in the experiment with SS-L6-LuS is 1850 pM; with SS-L6-Aferr, 1970 pM; in experiment [1], 748 pM; in experiment [2], 2730 pM; in experiment [3] it was 2280 pM. The kon in the experiment with SS-L6-LuS turned out to be 219000 M⁻¹ s⁻¹; in the experiment with SS-L6-Aferr, 268000 M⁻¹ s⁻¹; in experiment [1], 315000 M⁻¹ s⁻¹; in experiment [2], 184000 M⁻¹ s⁻¹; in experiment [3], 218000 M⁻¹ s⁻¹.

As to G4 (antibody), the Kd in experiment [4] is 3 pM; in experiment [6], 1.7 pM; in the experiment with SS-L6-LuS, 4.6 pM; with SS-L6-Aferr it was 3.02 pM; in experiment [1], 1.78 pM; in experiment [2], 2.82 pM. In experiment [3], this substance yielded a Kd of 3.47 pM. The substance also showed a maximum binding in experiment [5] of 1.3 nm. The kon was determined as 133000 M⁻¹ s⁻¹ with SS-L6-LuS; 155000 M⁻¹ s⁻¹ with SS-L6-Aferr; 270000 M⁻¹ s⁻¹ in experiment [1]; 229000 M⁻¹ s⁻¹ in experiment [2]; 147000 M⁻¹ s⁻¹ in experiment [3].
